Tests used:
[1] = target: DC-SIGN (DC-specific intercellular adhesion molecule-3 (ICAM-3)-grabbing nonintegrin) on Raji/DC-SIGN cells (human) (UniProt Q9NNX6); assay: virus adhesion to cells, captured virus measured by p24 ELISA
[2] = target: DC-SIGN (DC-specific intercellular adhesion molecule-3 (ICAM-3)-grabbing nonintegrin) on K562/DC-SIGN cells (human) (UniProt Q9NNX6); assay: as above

Substance: R5-tropic HIV-1ADA envelope glycoprotein on pseudotyped HIV-Luc/ADA particles (natural protein)
- fold HIV-1 binding relative to the parental cells [1]: 1.5 fold
- fold HIV-1 binding relative to the parental cells [2]: 1.8 fold

Reference: PMC446230
